The source of these data is patent publication US20070020252A1, “Modified protease inhibitors” (priority 2003, published 2007).

Where no end group is shown, it is not given here.

A word on the Ki: it is the equilibrium dissociation constant of an inhibitor or competing ligand from its target. Lower therefore signals a stronger hold on the target.

Data set [1] in a line: Pharmacokinetic study in mice: plasma clearance of 125I-labeled protein, SEC of plasma. It counts as in vivo. The conditions noted are these: for α Phase Clearance (%) / α Phase Half-life / β Phase Clearance (%) / β Phase Half-life (hr) / β Phase Half-life (min): tail vein injection, bi-exponential fit; for α half life: Table 4 summary. The procedure: The pharmacokinetics of DX-890 and the PEGylated DX-890 compounds were measured by iodinating the proteins on available tyrosine residues and measuring their clearance in mice.
Samples were radio-iodinated by the indirect method using the IODO-GEN reagent (method from Pierce Chem. Co., and first described by Chizzonite [J Immunol 147, 1548-1556, 1991; J. Immunol 148, 3117-3124, 1992]). Samples were incubated with the ^125I-NaI solution for 9 min at which time tyrosine (10 mg/mL, a saturated solution) was added to quench the reaction. After about 15 min a 5 μl aliquot was removed as a standard for counting.
For each labeling reaction, the ^125I-labeled material (approx. 0.6 mL) was purified using a single 5 mL D-salt 1800 polyacrylamide column (Pierce Chem. Co.). […] Samples were applied in and columns were eluted with a series of 0.3 mL aliquots. Recovery of applied activity in all protein fractions was >75% and the total recovery of applied activity was >90%. The fractions containing peak levels of labeled protein were pooled for animal injections. To prepare the injectate, the pool was diluted with Tris buffer (pH 7.5) so that the 100 μL injection volume contained about 10 μg of labeled material.
Time of injection and time of sampling were recorded. At sacrifice, samples of 0.5 ml were collected into anticoagulant (0.02 ml EDTA). Cells were spun down and separated from plasma, and cells were stored at −20° C. Plasma was divided into two aliquots, one frozen and one stored at 4° C. for immediate analysis. Analysis included gamma counting of all samples. In addition, analysis was performed for two plasma samples (N=2) at each time point, i.e., 0, and 30 minutes, for ^125I-DX-890, and 0, 30 minutes, and 24 h for the ^125I-DX-890-PEG conjugates. A SEC-HPLC Superose-12 column was used with an in-line radiation detector (FIGS. 4-7).
The solid curves through the sets of data plotted in FIG. 3 are four-parameter, least-squares fits of Equation 3 to the data. Table 3 presents the values for % α Phase, α Phase Half-life, % β Phase, and β Phase Half-life extracted from the least squares fits to the in vivo clearance data set obtained for each of the four compounds tested in mice.

For data set [2], the target named is T1, human neutrophil elastase (HNE) (Homo sapiens, UniProt P08246).
T1 sequence (P08246 30-267): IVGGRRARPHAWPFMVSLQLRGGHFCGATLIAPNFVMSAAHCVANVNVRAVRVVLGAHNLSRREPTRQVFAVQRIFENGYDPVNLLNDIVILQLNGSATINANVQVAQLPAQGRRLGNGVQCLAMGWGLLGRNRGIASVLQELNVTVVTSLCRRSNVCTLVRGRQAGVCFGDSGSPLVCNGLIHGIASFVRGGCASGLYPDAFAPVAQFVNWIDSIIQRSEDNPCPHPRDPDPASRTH
As to the kind of experiment: Ki measurement: tight-binding inhibition of HNE, fluorogenic substrate hydrolysis. It counts as biochemical. The procedure:
(§1) Equilibrium inhibition constants for the PEGylated DX-890 samples were determined according to the tight-binding inhibition model with formation of a reversible complex (1:1 stoichiometry). Reactions were set up with 100 pM enzyme and a range of inhibitor concentrations (0-4 nM) at 30° C. in 50 mM HEPES, pH 7.5, 150 mM NaCl, and 0.1% Triton X-100. Following a 24 h incubation, substrate was added (25 μM) to the enzyme-inhibitor solution and the rate of substrate hydrolysis monitored at an excitation of 360 nm and an emission of 460 nm. Plots of the percent remaining activity versus active inhibitor concentration were fit by nonlinear regression analysis to Equation 1 to determine equilibrium dissociation constants. Both the Dyax DX-890 reference lot 00B16 and the DX-890 used for PEGylations, NBG2016/9 were analyzed for comparison. [formula] Where: • % A=percent activity • I=DX-890 • E=HNE concentration • Ki=equilibrium inhibition constant

A short description of data set [3]: Pharmacokinetic study in rabbits: plasma clearance of 125I-labeled protein, SEC of plasma. Type of data set: in vivo, New Zealand White rabbits. The procedure:
Pharmacokinetic properties of DX-890 and PEG-30-DX-890 (conjugation at pH 7.4) were measured by iodinating the proteins and measuring clearance of the radiolabel from circulation in rabbits. The two DX-890 preparations were iodinated with iodine-125 using the iodogen method. After radiolabeling, the two labeled protein preparations were purified from unbound label by size exclusion chromatography (SEC). Fractions from the SEC column having the highest radioactivity were pooled. The purified, radiolabeled preparations were characterized for specific activity by gamma counting and for purity by SEC using a Superose-12 column equipped with an in-line radiation detector.
New Zealand White rabbits (ca. 2.5 Kg) were used for clearance measurements, with one animal used for each of the two labeled protein preparations. The radiolabeled preparation was injected into the animal via an ear vein. One blood sample was collected per animal per time point with early time points at approximately 0, 2.5, 5, 7, 15, 30, 60, and 90 minutes post injection and later time points at 4, 8, 16, 24, 30, 48, 72, 96, 144, 168, and 192 hours post injection. Samples (about 0.5 mL) were collected into anticoagulant (EDTA) containing tubes. Cells were separated from the plasma fraction by centrifugation. The plasma fraction was divided into two aliquots. One plasma aliquot was stored at −70° C. and the other aliquot was kept at 4° C. for immediate analyse's. Sample analyses included radiation counting for clearance rate determinations and SEC chromatography to test for changes in the size distribution of radiolabeled material in vivo (stability).

Data set [4] concerns the target T2, human neutrophil elastase (human, UniProt P08246 30-247).
T2 construct: also called hNE; HNE
T2 sequence (looked up): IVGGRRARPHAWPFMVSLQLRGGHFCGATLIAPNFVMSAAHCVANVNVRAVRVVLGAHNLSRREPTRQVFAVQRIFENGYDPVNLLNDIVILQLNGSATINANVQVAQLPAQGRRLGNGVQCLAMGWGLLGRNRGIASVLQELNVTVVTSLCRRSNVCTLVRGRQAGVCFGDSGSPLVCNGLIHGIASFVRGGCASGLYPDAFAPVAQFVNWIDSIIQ
Kind of data set: enzyme inhibition, tight-binding model; 100 pM hNE (summary table, repeats Table 3). The procedure: as §1, with “comparison.” for “comparison. [formula] Where: • % A=percent activity • I=DX-890 • E=HNE concentration • Ki=equilibrium inhibition constant”

Data set [5] has as its target T2, human neutrophil elastase. Kind of data set: enzyme inhibition, tight-binding model; 100 pM hNE, 0-4 nM inhibitor, 24 h incubation at 30 C, fluorogenic substrate. How it is done:
as §1, with “comparison.” for “comparison. [formula] Where: • % A=percent activity • I=DX-890 • E=HNE concentration • Ki=equilibrium inhibition constant”

For data set [6], the target named is T2, human neutrophil elastase. As to the kind of experiment: enzyme inhibition, tight-binding model; 100 pM hNE; reference native DX-890. How it is done: as §1, with “comparison.” for “comparison. [formula] Where: • % A=percent activity • I=DX-890 • E=HNE concentration • Ki=equilibrium inhibition constant”
Setting [7] is: ear vein injection, bi-exponential fit.

Take “PEG20-DX-890-7.4: DX-890 conjugated to a 20 kDa PEG moiety (MPEG-SPA20K, conjugated at pH 7.4), mono-PEGylated (EACNLPIVRGPCIAFFPRWAFDAVKGKCVLFPYGGCQGNGNKFYSEKECREYCGVP)”: in data set [1], the “α Phase Clearance (%)” value is 58%, the “α Phase Half-life” value was found to be 0.417 h, the “β Phase Clearance (%)” value came out at 42% and the “β Phase Half-life (hr)” value amounted to 5.1 h. Also, the “β Phase Half-life (min)” value in data set [1] is given as 307 min.
Regarding “PEG30-DX-890-7.4: DX-890 conjugated to a 30 kDa PEG moiety (MPEG-SPA30K, conjugated at pH 7.4), mono-PEGylated (EACNLPIVRGPCIAFFPRWAFDAVKGKCVLFPYGGCQGNGNKFYSEKECREYCGVP; not fully specified)”, the “Ki relative to native DX-890” value in data set [2] is recorded as “twice”. In data set [3], the “fraction of total material in the slow clearance portion relative to unmodified DX-890” value is recorded as “nearly doubles”, the in vivo half-life entry was “about 3 days” and the “increase of T1/2β versus unmodified protein” value is listed as “about 25 fold”. In addition, the “time label remains stably associated with injectate peaks” value in data set [3] (SEC analysis of plasma samples) is listed as “at least 72 hours”. For the same molecule, in data set [3] (setting [7]), the “% α” value stood at 55%, the “% β” value worked out at 45%, the T1/2α was 2.73 h and the T1/2β was found to be 69.23 h. Moreover, in data set [3] (one day post injection), the “relative levels of circulating radiolabel versus unmodified protein” value was “more than 100 fold”.
For “PEG30-DX-890-6.0: DX-890 conjugated to a 30 kDa PEG moiety (MPEG-SPA30K, conjugated at pH 6), mono-PEGylated (EACNLPIVRGPCIAFFPRWAFDAVKGKCVLFPYGGCQGNGNKFYSEKECREYCGVP)”, in data set [1], the “β phase half life” value is “about 8 hr”, the α half life came out at 0.317 h, the “α Phase Clearance (%)” value is 33% and the “α Phase Half-life” value was determined as 0.32 h. In addition, in data set [1], the “β Phase Clearance (%)” value is given as 67%, the “β Phase Half-life (hr)” value amounted to 8.4 h and the “β Phase Half-life (min)” value is on record as 505 min.
Regarding “PEG20-DX-890-6.0: DX-890 conjugated to a 20 kDa PEG moiety (MPEG-SPA20K, conjugated at pH 6), mono-PEGylated (EACNLPIVRGPCIAFFPRWAFDAVKGKCVLFPYGGCQGNGNKFYSEKECREYCGVP)”, in data set [1], the α half life was determined as 0.25 h, the “α Phase Clearance (%)” value stood at 53%, the “α Phase Half-life” value turned out to be 0.278 h and the “β Phase Clearance (%)” value came out at 47%. Also, in data set [1], the “β Phase Half-life (hr)” value was determined as 4.9 h and the “β Phase Half-life (min)” value turned out to be 296 min.

B1: DX-890 (designed binder)
chain: EACNLPIVRGPCIAFFPRWAFDAVKGKCVLFPYGGCQGNGNKFYSEKECREYCGVP
modifications: disulfide (positions not given here); also: three intramolecular disulfides, pairing not given here
notes: 56 aa, three intramolecular disulfides; also called EPI-hNE4; Native DX-890
Turning to B1, the inhibition constant Ki in data set [4] and in data set [5] was 7 pM in each case.

B2: DX-890 conjugated to a 20 kDa PEG moiety (conjugated at pH 7.4) (designed binder)
chain: B1 chain
modifications: single 20 kDa mPEG (MPEG-SPA20K) attached, mono-PEGylated; reaction at pH 7.4, headed 'Random-Site Modification' (site not determined)
notes: also called PEG20-DX-890-7.4; +20K PEG, pH 7.4
In the case of B2, the inhibition constant (Ki) in data set [4] and in data set [5] was 8 pM throughout.

B3: DX-890 conjugated to a 30 kDa PEG moiety (conjugated at pH 6) (designed binder)
chain: B1 chain
modifications: single 30 kDa mPEG (MPEG-SPA30K) attached, mono-PEGylated; reaction at pH 6.0, headed 'N-Terminal-Site Modification'
notes: also called PEG30-DX-890-6.0; +30K PEG, pH 6
As to B3, the inhibitory constant (Ki) in data set [4] and in data set [5] was 8 pM in each case.

B4: DX-890 conjugated to a 20 kDa PEG moiety (conjugated at pH 6) (designed binder)
chain: B1 chain
modifications: single 20 kDa mPEG (MPEG-SPA20K) attached, mono-PEGylated; reaction at pH 6.0, headed 'N-Terminal-Site Modification'
notes: also called PEG20-DX-890-6.0; +20K PEG, pH 6
In the case of B4, the Ki in data set [4] and in data set [5] was 7 pM in each case.

B5: DX-890 conjugated to a 30 kDa PEG moiety (conjugated at pH 7.4) (designed binder)
chain: B1 chain
modifications: single 30 kDa mPEG (MPEG-SPA30K) attached, mono-PEGylated; reaction at pH 7.4, headed 'Random-Site Modification' (site not determined)
notes: also called PEG30-DX-890-7.4; +30K PEG, pH 7.4
Regarding B5, the “fold Ki relative to native DX-890” value in data set [6] amounted to 2 fold. Further, the Ki in data set [4] and in data set [5] was 16 pM throughout.
